Experimental data from article PMC4027176, “Modulating TRAP-mediated transcription termination by AT during transcription of the leader region of the Bacillus subtilis trp operon” (Nucleic Acids Research, 2014).
One block for each molecule: values may come before it.

B2: His-tagged N20C (Asn20 replaced with Cys) TRAP (natural protein, B. subtilis, UniProt P19466 1-75, looked up)
chain: MNQKHSSDFVVIKAVEDGVCVIGLTRGTDTKFHHSEKLDKGEVIIAQFTEHTSAIKVRGEALIQTAYGEMKSEKK
notes: TRAP of Bacillus subtilis (mtrB), 75 amino acid subunit, with Asn20 replaced by Cys; six histidine residues at the carboxy terminus of each subunit; Cross-linking was done in the presence of 1 mM tryptophan; also called N20C TRAP; N20C TRAP 11mer; source: purified using Ni-agarose; not shown: His6, C-terminal, kept; copies: 11

Tests used:
[1] = target: T1, TRAP (trp RNA binding Attenuation Protein), WT (Bacillus subtilis) (UniProt P19466); assay: pull-down of blocked TEC, immunoblot; conditions: Filter binding: 16 mM Tris pH 8.0, 250 mM KCl, 1 mM tryptophan, 10 ug yeast RNA, 37 C, 20 min. Pull-down: 20 mM Tris-HCl pH 8.0, 6 mM MgCl2, 2 mM DTT, 100 mM …
T1 sequence: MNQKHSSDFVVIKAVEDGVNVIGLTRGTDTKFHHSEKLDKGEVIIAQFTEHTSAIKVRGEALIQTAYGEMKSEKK

[2] = target: T1, TRAP (trp RNA binding Attenuation Protein), WT (Bacillus subtilis); assay: filter binding; conditions: Filter binding: 16 mM Tris pH 8.0, 250 mM KCl, 1 mM tryptophan, 10 ug yeast RNA, 37 C, 20 min. Pull-down: 20 mM Tris-HCl pH 8.0, 6 mM MgCl2, 2 mM DTT, 100 mM …
[3] = target: T2, TRAP-AT = 1:1 complex, (N20C)1(WT)10 TRAP 11mer crosslinked with BMOE to one D7C AT trimer N20C;D7C (Bacillus subtilis) (UniProt P19466+P19466+O31466); assay: filter binding; conditions: Filter binding: 16 mM Tris pH 8.0, 250 mM KCl, 1 mM tryptophan, 10 ug yeast RNA, 37 C, 20 min. Pull-down: 20 mM Tris-HCl pH 8.0, 6 mM MgCl2, 2 mM DTT, 100 mM …
T2 sequence 1: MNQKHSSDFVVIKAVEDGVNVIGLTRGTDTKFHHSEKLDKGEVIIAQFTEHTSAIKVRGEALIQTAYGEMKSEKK
T2 sequence 2: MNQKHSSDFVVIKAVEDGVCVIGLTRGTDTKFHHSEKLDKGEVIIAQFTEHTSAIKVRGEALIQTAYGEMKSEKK
T2 sequence 3: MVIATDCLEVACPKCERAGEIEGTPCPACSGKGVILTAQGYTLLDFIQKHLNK

[4] = target: B2; assay: pull-down; limiting His-tagged N20C TRAP mixed with 50-fold excess WT TRAP, denatured in 5 M guanidine-HCl 1 h at room temperature, renatured by dialysis in 50 mM phosphate pH 8.0; hetero-11mers held on Ni agarose; conditions: both partners purified
[5] = target: the molecule itself; assay: cross-linking; BMOE (0.04 mM, 8 Å sulfhydryl cross-linker); N20C TRAP 0.02 mM and/or D7C AT 0.08 mM; 1 mM tryptophan; PBS pH 7.2, 0.5 mM EDTA; 37°C 1 h; 15% SDS gel, Coomassie
[6] = target: T3, trp RNA binding Attenuation Protein (TRAP), wild type, 11mer (B. subtilis) (UniProt P19466)
T3 sequence: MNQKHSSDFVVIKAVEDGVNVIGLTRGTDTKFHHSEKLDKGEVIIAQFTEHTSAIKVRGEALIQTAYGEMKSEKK

Molecule: Eco116 nascent trp leader RNA (~11 repeats exposed)
binding signal [1]: 100 % TRAP bound

Molecule: GAGUUGAGUUGAGUUGAGUUGAGUUGAGUUGAGUUGAGUUGAGUUGAGUUGAGUU [(GAGUU)11 RNA]
Kd [2]: 0.55 nM
Kd [3]: 3.7 nM

Molecule: Δ9-11Eco116 nascent trp leader RNA (7 repeats exposed)
binding signal [1]: 100 % TRAP bound

Molecule: Δ10-11Eco116 nascent trp leader RNA (8 repeats exposed)
binding signal [1]: 100 % TRAP bound

binding result [4]: binds
B1: trp RNA binding Attenuation Protein (TRAP), wild type, 11mer (natural protein, B. subtilis, UniProt P19466 1-75, looked up)
chain: MNQKHSSDFVVIKAVEDGVNVIGLTRGTDTKFHHSEKLDKGEVIIAQFTEHTSAIKVRGEALIQTAYGEMKSEKK
notes: 11 identical subunits of 75 amino acids in a ring; also called WT TRAP; TRAP 11mer; copies: 11

Molecule: B2
binding result [5]: binds

in vitro transcription attenuation, Eco116 template; percent of transcripts terminated when AT was added after TRAP had bound the nascent transcript (post) [6]: 80%
B3: Anti-TRAP (AT), wild type, trimer (natural protein)
chain: MVIATDDLEVACPKCERAGEIEGTPCPACSGKGVILTAQGYTLLDFIQKHLNK

B4: AT containing a Cys substitution at residue 7 (D7C AT) (natural protein, B. subtilis, UniProt O31466 1-53, looked up)
chain: MVIATDCLEVACPKCERAGEIEGTPCPACSGKGVILTAQGYTLLDFIQKHLNK
notes: Anti-TRAP (AT) of Bacillus subtilis with Asp7 replaced by Cys; source: purified as described by Chen and Gollnick (19)
binding result [5]: binds
